# Assay results from publication PMC12013189, “Phospho-regulated tethering of focal adhesion kinase to vinculin links force transduction to focal adhesion signaling” (Cell Communication and Signaling : CCS, 2025).
# Residue numbers refer to the chain shown, from its start. Numbers in names are those of the source. Ends that are not written are not given here.
# T1: FAT domain of FAK (hFAK904-1052 WT) (Homo sapiens, UniProt Q05397)
# T1 construct: Expression plasmids for FAT (hFAK904-1052 WT and mutants H14, H23 and H14-23); 6xHis (TEV cleavable) (N, cleaved yes); made in house; host or cells: E. coli BL21(DE3)
# T1 sequence (Q05397 904-1052): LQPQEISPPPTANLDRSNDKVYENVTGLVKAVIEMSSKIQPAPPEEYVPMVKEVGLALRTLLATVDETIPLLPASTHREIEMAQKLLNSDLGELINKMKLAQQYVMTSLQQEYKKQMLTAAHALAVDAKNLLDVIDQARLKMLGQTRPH
# T2: paxillin LD2/4 peptide (LD2 and LD4 motifs separated by a designed linker) (FITC label (fluorescence anisotropy))
# T2 chain: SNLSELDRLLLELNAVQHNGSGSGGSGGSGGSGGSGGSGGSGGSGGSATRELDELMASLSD
# T3: FAT-H14 (hFAK904-1052 with I936A, H1025A, K1032A) (human, UniProt Q05397 904-1052, I936A | H1025A | K1032A)
# T3 sequence: T1 sequence (Q05397 904-1052) with I33A, H122A, K129A
# T4: FAT-H23 (hFAK904-1052 with K955A, R962A, I998A) (human, UniProt Q05397 904-1052, K955A | R962A | I998A)
# T4 sequence: T1 sequence (Q05397 904-1052) with K52A, R59A, I95A
# T5: FAT domain of Focal Adhesion Kinase, wild type (hFAK904-1052) (human, UniProt Q05397 904-1052)
# T5 chain: T1 sequence (Q05397 904-1052)
# T6: FAT-Y925E phospho-mimetic mutant (human, UniProt Q05397 904-1052, Y925E)
# T6 sequence: T1 sequence (Q05397 904-1052) with Y22E
# T7: FAT-Y925F phosphodeficient mutant (human, UniProt Q05397 904-1052, Y925F)
# T7 sequence: T1 sequence (Q05397 904-1052) with Y22F
# B1: FAT domain of Focal Adhesion Kinase, wild type (hFAK904-1052) (domain or fragment, human, UniProt Q05397 904-1052, looked up)
# chain: T1 sequence (Q05397 904-1052)
# notes: focal adhesion kinase (FAK), human, FAT domain, residues 904-1052 (hFAK904-1052); also called FAT-WT; source: E. coli BL21(DE3), purified (His-Trap, TEV digest, Source 15Q, Ni-NTA flow-through, Superdex200); not shown: His6, N-terminal, cleaved
# B2: FAT-H14 (hFAK904-1052 with I936A, H1025A, K1032A) (domain or fragment)
# chain: T1 sequence (Q05397 904-1052) with I33A, H122A, K129A
# B3: paxillin LD2/4 peptide (LD2 and LD4 motifs separated by a designed linker) (peptide)
# chain: T2 chain
# modifications: also: FITC label, position not given here
# How the values were obtained:
# [1] = biological target: T8, vinculin tail domain (Vin-T, hVinculin891-1066) (Homo sapiens, UniProt P18206); assay: Fluorescence anisotropy binding to vinculin tail domain; conditions: 25 nM FITC labelled peptide, pH7.5, 22 °C, one-site binding model, 4 measurements, read-out: Apparent KD for vinculin tail domain (Vin-T)
# T8 construct: Vin-FL (hVinculin1-1066) and Vin-T (hVinculin891-1066) were ordered from GenScript; 6xHis (TEV cleavable) (N, cleaved yes); made in house; host or cells: E. coli BL21(DE3)
# T8 sequence (P18206 891-1066 isoform P18206-2): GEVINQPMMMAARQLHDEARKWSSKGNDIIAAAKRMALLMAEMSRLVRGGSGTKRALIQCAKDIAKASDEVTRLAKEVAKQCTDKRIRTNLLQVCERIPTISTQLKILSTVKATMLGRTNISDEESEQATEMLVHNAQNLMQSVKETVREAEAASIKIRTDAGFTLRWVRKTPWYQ
# Source text: (§1) Expression plasmids for FAT (hFAK904-1052 WT and mutants H14, H23 and H14-23), Vin-FL (hVinculin1-1066) and Vin-T (hVinculin891-1066) were ordered from GenScript in the pET28(+) vector, adding a TEV cleavable N-terminal 6xHis tag to the expressed proteins. Mutant FAT-H14 contains the mutations I936A, H1025A, K1032A; FAT-H23 contains the mutations K955A, R962A, I998A and FAT-14-23 contains the combined mutations I936A, K955A, R962A, I998A, H1025A, K1032A. All plasmids were introduced into E.coli strain BL21(DE3) for expression. Cells were grown in LB media, induced with 1 mM IPTG at an OD (600 nm) of 0.6 and grown over night at 20 °C. […]
# (§2) Binding curves were determined in a total of 20 µl in black 384 well plates, by titrating protein concentrations (typically up to 50 µM) at a fixed concentration of 25 nM FITC labelled LD peptides (Apeptide Co. Ltd) in 20 mM Tris pH7.5, 150 mM NaCl, 1mM TCEP. Anisotropy measurements were preformed at 22 °C on a Spark® Multimode microplate reader (Tecan) with polarizers, at an excitation wavelength of 485 nm and an emission wavelength of 535 nm (20 nm bandwidth). KD values were extracted by fitting a one-site binding model using the GraphPad Prism software, using the equation: Y = Bmax*X/(KD + X), where Y is the measured anisotropy, X the protein concentration and Bmax the maximal anisotropy value at binding saturation.
# [2] = biological target: T9, full-length vinculin (Vin-FL, hVinculin1-1066) (Homo sapiens, UniProt P18206); assay: Fluorescence anisotropy binding to full-length vinculin; conditions: 25 nM FITC labelled peptide, pH7.5, 22 °C, one-site binding model, 4 measurements, read-out: Apparent KD for full-length vinculin (Vin-FL)
# T9 construct: Vin-FL (hVinculin1-1066) and Vin-T (hVinculin891-1066) were ordered from GenScript; 6xHis (TEV cleavable) (N, cleaved yes); made in house; host or cells: E. coli BL21(DE3)
# T9 sequence (P18206 1-1066 isoform P18206-2): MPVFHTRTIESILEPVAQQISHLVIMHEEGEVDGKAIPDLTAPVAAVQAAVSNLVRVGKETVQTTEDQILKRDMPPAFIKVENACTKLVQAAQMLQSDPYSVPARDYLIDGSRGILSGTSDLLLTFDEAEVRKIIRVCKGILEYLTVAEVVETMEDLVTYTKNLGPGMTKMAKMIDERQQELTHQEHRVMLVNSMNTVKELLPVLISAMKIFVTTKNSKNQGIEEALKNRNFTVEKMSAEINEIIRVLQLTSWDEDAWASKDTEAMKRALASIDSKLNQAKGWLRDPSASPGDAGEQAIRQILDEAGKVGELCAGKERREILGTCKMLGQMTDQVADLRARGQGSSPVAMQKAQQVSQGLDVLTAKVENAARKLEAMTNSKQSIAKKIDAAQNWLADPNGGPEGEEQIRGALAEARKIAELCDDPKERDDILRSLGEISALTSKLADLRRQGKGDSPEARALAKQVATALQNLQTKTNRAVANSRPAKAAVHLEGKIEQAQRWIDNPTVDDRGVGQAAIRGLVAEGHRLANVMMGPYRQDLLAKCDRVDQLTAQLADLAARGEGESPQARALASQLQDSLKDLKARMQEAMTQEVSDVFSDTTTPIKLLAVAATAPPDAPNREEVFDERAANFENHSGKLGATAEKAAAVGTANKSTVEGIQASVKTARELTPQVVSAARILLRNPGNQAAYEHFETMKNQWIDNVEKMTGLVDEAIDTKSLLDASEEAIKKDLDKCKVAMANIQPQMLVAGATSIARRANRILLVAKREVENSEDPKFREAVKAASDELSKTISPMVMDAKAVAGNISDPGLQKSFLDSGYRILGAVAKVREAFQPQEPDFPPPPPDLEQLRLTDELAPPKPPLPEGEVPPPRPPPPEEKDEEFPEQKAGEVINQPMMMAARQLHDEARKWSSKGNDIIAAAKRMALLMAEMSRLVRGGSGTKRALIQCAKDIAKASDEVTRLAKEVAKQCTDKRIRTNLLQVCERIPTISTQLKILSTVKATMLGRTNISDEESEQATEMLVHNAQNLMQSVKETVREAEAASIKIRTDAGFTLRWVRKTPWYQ
# Source text: as §1, §2
# [3] = biological target: paxillin LD2 peptide; assay: fluorescence polarisation; fluorescence anisotropy; protein titrated (typically up to 50 µM) at 25 nM FITC labelled LD peptide; 20 mM Tris pH7.5, 150 mM NaCl, 1mM TCEP; 22 °C; one-site binding model; apparent KD
# [4] = biological target: vinculin tail domain (hVinculin891-1066) (human) (UniProt P18206); assay: AUC; sedimentation velocity; Vin-T at 100 µM; 20 °C, 48,000 rpm; monomer to dimer
# [5] = biological target: paxillin LD1 peptide; assay: fluorescence polarisation; fluorescence anisotropy; protein titrated (typically up to 50 µM) at 25 nM FITC labelled LD peptide; 20 mM Tris pH7.5, 150 mM NaCl, 1mM TCEP; 22 °C; one-site binding model; apparent KD
# [6] = biological target: T1, FAT domain of FAK (hFAK904-1052 WT); assay: Fluorescence anisotropy binding of FITC LD peptides to FAT-WT
# Source text: Expression plasmids for FAT (hFAK904-1052 WT and mutants H14, H23 and H14-23), Vin-FL (hVinculin1-1066) and Vin-T (hVinculin891-1066) were ordered from GenScript in the pET28(+) vector, adding a TEV cleavable N-terminal 6xHis tag to the expressed proteins. Mutant FAT-H14 contains the mutations I936A, H1025A, K1032A; FAT-H23 contains the mutations K955A, R962A, I998A and FAT-14-23 contains the combined mutations I936A, K955A, R962A, I998A, H1025A, K1032A. All plasmids were introduced into E.coli strain BL21(DE3) for expression. Cells were grown in LB media, induced with 1 mM IPTG at an OD (600 nm) of 0.6 and grown over night at 20 °C. Cells were pelleted at 6000 rpm and resuspended in 20 mM Tris pH8, 200 mM NaCl, 5% Glycerol, 10 mM imidazole, 2mM TCEP, 1mM PMSF supplemented with cOmplete protein inhibitor cocktail (Roche). Cells were lysed by sonication and insoluble components removed by centrifugation at 40 K for 1 h at 4 °C. Soluble lysates were cleared through 0.45 μm filters and loaded onto His-Trap affinity columns (Cytiva), washed with step gradients up to 30 mM imidazole and eluted with a gradient up to 500 mM imidazole. Peak-fractions were digested over night with TEV protease (molar ratio ~ 1: 20) at 4 °C. Proteins were diluted to 50 mM NaCl and loaded onto a Source 15Q column, washed with 20 mM Tris pH8, 50 mM NaCl, 5% Glycerol, 1mM TCEP and eluted with a gradient up to 1 M NaCl. Peak fractions were mixed with 1 ml of Ni-NTA beads to remove TEV and uncleaved protein, adding 10 mM imidazole to prevent non-specific binding. The flow-through was concentrated, loaded onto a Superdex200 16/60 column and eluted in 20 mM Tris pH8, 200 mM NaCl, 5% Glycerol, 2mM TCEP. Peak fractions were concentrated, aliquots flash frozen in LN2 and stored at -80 °C.
# as §2
# [7] = biological target: T2, paxillin LD2/4 peptide (LD2 and LD4 …); assay: AUC; sedimentation velocity; FAT and Vin-T at 30 µM with 10 µM LD2/4 peptide; 20 mM Tris pH 7.5, 200 mM NaCl, 5% Glycerol, 1 mM TCEP; 20 °C, 58,000 rpm; absorbance at 280 nm; conditions: both partners purified
# [8] = biological target: T3, FAT-H14 (hFAK904-1052 with I936A, …); assay: FP
# [9] = biological target: T4, FAT-H23 (hFAK904-1052 with K955A, …); assay: FP
# [10] = biological target: T5, FAT domain of Focal Adhesion Kinase, …; assay: FP
# [11] = biological target: T6, FAT-Y925E phospho-mimetic mutant; assay: FP
# [12] = biological target: T7, FAT-Y925F phosphodeficient mutant; assay: FP
# [13] = biological target: B1; assay: fluorescence polarisation; fluorescence anisotropy; protein titrated (typically up to 50 µM) at 25 nM FITC labelled LD peptide; 20 mM Tris pH7.5, 150 mM NaCl, 1mM TCEP; 22 °C; one-site binding model; apparent KD; conditions: both partners purified
molecule,measurement,setting,value
MDDLDALLADLES [LD1],Kd,[1],3100 ± 300 nM
CC(C)C[C@H](NC(=O)[C@H](CCC(=O)O)NC(=O)[C@H](CC(C)C)NC(=O)[C@H](CC(C)C)NC(=O)[C@H](CC(C)C)NC(=O)[C@H](CCCNC(=N)N)NC(=O)[C@H](CC(=O)O)NC(=O)[C@H](CC(C)C)NC(=O)[C@H](CCC(=O)O)NC(=O)[C@H](CO)NC(=O)[C@H](CC(C)C)NC(=O)[C@H](CC(N)=O)NC(=O)[C@@H](N)CO)C(=O)N[C@@H](CC(N)=O)C(=O)N[C@@H](C)C(=O)N[C@H](C(=O)N[C@@H](CCC(N)=O)C(=O)N[C@@H](Cc1c[nH]cn1)C(=O)N[C@@H](CC(N)=O)C(=O)O)C(C)C [LD2],Kd,[2],1300 ± 300 nM
same,Kd,[1],1700 ± 300 nM
full-length vinculin (hVinculin1-1066) (from UniProt P18206-2 1-1066) (natural protein),Kd,[3],1300 nM
vinculin tail domain (hVinculin891-1066) (from UniProt P18206-2 891-1066) (domain or fragment),percent of Vin-T in the ~ 2.5 S form at 100 µM,[4],20%
same,stoichiometry N,[4],2
same,Kd,[3],1700 nM
same,Kd,[5],3.1 µM
"SVESLLDELES [LD3, synthetic peptide corresponding to the paxillin LD3 motif, FITC labelled N-terminally for anisotropy]","binding to FAT-WT, in words",[6],no significant affinity
SATRELDELMASLSD [LD4],Kd,"[6]; 25 nM FITC labelled peptide, 20 mM Tris pH7.5, 150 mM NaCl, 1mM TCEP, 22 °C, one-site binding model, 4 measurements, read-out: Apparent KD for FAT-WT",2100 ± 400 nM
"SQLDSMLGSLQSD [LD5, synthetic peptide corresponding to the paxillin LD5 motif, FITC labelled N-terminally for anisotropy]","binding to FAT-WT, in words",[6],no significant affinity
B1,stoichiometry N,[7],1 FAT per LD2/4 (2:2)
same,Kd,[3],2000 nM
same,fold lower affinity than for LD2 and LD4,[5],10 fold
B2,fold reduction of affinity against FAT-WT,[3],7 fold
"SNLSELDRLLLELNAVQHN (also: FITC label, position not given here) [paxillin LD2 peptide]",Kd,[8],13.3 µM
same,Kd,[9],3900 nM
same,Kd,[10],1.8 µM
same,Kd,[11],6 µM
same,Kd,[12],6 µM
B3,Kd,[8],5.8 µM
same,Kd,[9],1800 nM
same,Kd,[13],130 ± 10 nM
same,Kd,[11],1.5 µM
same,Kd,[12],1.4 µM
"MDDLDALLADLES (also: FITC label, position not given here) [paxillin LD1 peptide]",Kd,[8],31.4 µM
same,Kd,[10],18.3 µM
same,Kd,[11],24.7 µM
same,Kd,[12],19.3 µM
"ATRELDELMASLS (also: FITC label, position not given here) [paxillin LD4 peptide]",Kd,[8],3.6 µM
same,Kd,[13],~2000 nM
